According to patent publication US20250115669A1, “FGFR1/KLB Targeting Agonistic Antigen-Binding Proteins and Conjugates Thereof with GLP-1R Agonistic Peptides” (SANOFI, priority 2020, published 2025):

T1: human beta-Klotho (Homo sapiens, UniProt Q86Z14)
T1 sequence (Q86Z14 1-1044): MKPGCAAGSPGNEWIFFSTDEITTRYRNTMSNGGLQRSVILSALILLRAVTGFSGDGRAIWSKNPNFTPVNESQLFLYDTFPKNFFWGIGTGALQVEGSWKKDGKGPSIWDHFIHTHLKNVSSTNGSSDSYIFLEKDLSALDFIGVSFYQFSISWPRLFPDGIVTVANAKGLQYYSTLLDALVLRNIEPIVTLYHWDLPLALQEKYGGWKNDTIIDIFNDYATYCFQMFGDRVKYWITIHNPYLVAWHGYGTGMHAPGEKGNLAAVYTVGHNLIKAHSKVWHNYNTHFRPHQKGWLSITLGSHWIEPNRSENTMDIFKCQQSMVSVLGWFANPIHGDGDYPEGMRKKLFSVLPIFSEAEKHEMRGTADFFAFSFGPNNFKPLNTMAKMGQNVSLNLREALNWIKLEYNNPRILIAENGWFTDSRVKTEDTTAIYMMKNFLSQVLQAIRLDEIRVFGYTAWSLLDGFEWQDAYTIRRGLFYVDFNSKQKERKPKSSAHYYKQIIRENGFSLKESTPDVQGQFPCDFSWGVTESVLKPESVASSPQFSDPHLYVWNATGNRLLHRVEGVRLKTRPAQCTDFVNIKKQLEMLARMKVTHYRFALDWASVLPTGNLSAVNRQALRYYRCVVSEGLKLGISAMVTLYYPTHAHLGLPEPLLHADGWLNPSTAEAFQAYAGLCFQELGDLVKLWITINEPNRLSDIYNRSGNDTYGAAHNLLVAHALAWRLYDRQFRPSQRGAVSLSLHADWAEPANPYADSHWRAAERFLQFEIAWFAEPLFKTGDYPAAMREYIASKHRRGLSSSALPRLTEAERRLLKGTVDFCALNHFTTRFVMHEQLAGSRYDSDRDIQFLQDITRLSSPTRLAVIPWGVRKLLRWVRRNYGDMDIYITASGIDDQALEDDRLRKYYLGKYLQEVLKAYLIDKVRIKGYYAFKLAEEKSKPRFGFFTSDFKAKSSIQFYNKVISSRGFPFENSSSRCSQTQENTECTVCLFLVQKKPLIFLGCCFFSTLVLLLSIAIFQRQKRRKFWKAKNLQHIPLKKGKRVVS


Each molecule was assayed against T1, human beta-Klotho (assay: SPR off-rate screening of antibody mutants (human beta-Klotho captured by anti-His antibody)). Conditions: mean, n=3.
Assay type: binding
Summary of the method: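 Anti-His capture on amine-coupled CM5 surface; analyte (mutant Ab) 50 nmol/L; assoc 240 sec / dissoc 300 sec; regeneration per capture kit; kd by single-exponential fit.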

Molecule	koff human KLB
Ab0353: IgG4 PE; 16H7 VL (N25S, D49E, D50E, D91E, N93A); 16H7 VH (M34V, I83T, D109E) (antibody) VH: QVTLKESGPVLVKPTETLTLTCTVSGFSLNNARVGVSWIRQPPGKALEWLAHIFSNDEKSYSTSLKSRLTISKDTSKSQVVLTMTNMDPVDTATYYCARSVVTGGYYYEGMDVWGQGTTVTVSS light: SYVLTQPPSVSVAPGQTARITCGGSNIGSESVHWYQQKPGQAPVLVVYEESDRPSGIPERFSGSNSGNTATLTISRVEAGDEADYYCQVWEGASDHVVFGGGTKLTVLGQPKANPTVTLFPPSSEELQANKATLVCLISDFYPGAVTVAWKADGSPVKAGVETTKPSKQSNNKYAASSYLSLTPEQWKSHRSYSCQVTHEGSTVEKTVAPTECS	0.0003799 s⁻¹
Ab0355: IgG4 PE; 16H7 VL (N25S, D49E, D50Y, D91E, N93S); 16H7 VH (M34V, I83T, D109E) (antibody) VH: QVTLKESGPVLVKPTETLTLTCTVSGFSLNNARVGVSWIRQPPGKALEWLAHIFSNDEKSYSTSLKSRLTISKDTSKSQVVLTMTNMDPVDTATYYCARSVVTGGYYYEGMDVWGQGTTVTVSS light: SYVLTQPPSVSVAPGQTARITCGGSNIGSESVHWYQQKPGQAPVLVVYEYSDRPSGIPERFSGSNSGNTATLTISRVEAGDEADYYCQVWEGSSDHVVFGGGTKLTVLGQPKANPTVTLFPPSSEELQANKATLVCLISDFYPGAVTVAWKADGSPVKAGVETTKPSKQSNNKYAASSYLSLTPEQWKSHRSYSCQVTHEGSTVEKTVAPTECS	0.00195 s⁻¹
Ab0312: IgG4 PE; 16H7 VL (N25S, D49Y, D50E, N93E); 16H7 VH (M34V, I83T, D109E) (antibody) VH: QVTLKESGPVLVKPTETLTLTCTVSGFSLNNARVGVSWIRQPPGKALEWLAHIFSNDEKSYSTSLKSRLTISKDTSKSQVVLTMTNMDPVDTATYYCARSVVTGGYYYEGMDVWGQGTTVTVSS light: SYVLTQPPSVSVAPGQTARITCGGSNIGSESVHWYQQKPGQAPVLVVYYESDRPSGIPERFSGSNSGNTATLTISRVEAGDEADYYCQVWDGESDHVVFGGGTKLTVLGQPKANPTVTLFPPSSEELQANKATLVCLISDFYPGAVTVAWKADGSPVKAGVETTKPSKQSNNKYAASSYLSLTPEQWKSHRSYSCQVTHEGSTVEKTVAPTECS	0.0005302 s⁻¹
Ab0357: IgG4 PE; 16H7 VL (N25S, D49E, D50A, D91E, N93S); 16H7 VH (M34V, I83T, D109E) (antibody) VH: QVTLKESGPVLVKPTETLTLTCTVSGFSLNNARVGVSWIRQPPGKALEWLAHIFSNDEKSYSTSLKSRLTISKDTSKSQVVLTMTNMDPVDTATYYCARSVVTGGYYYEGMDVWGQGTTVTVSS light: SYVLTQPPSVSVAPGQTARITCGGSNIGSESVHWYQQKPGQAPVLVVYEASDRPSGIPERFSGSNSGNTATLTISRVEAGDEADYYCQVWEGSSDHVVFGGGTKLTVLGQPKANPTVTLFPPSSEELQANKATLVCLISDFYPGAVTVAWKADGSPVKAGVETTKPSKQSNNKYAASSYLSLTPEQWKSHRSYSCQVTHEGSTVEKTVAPTECS	0.00185 s⁻¹
Ab0298: IgG4 PE; 16H7 VL (N25S, D49Y, D50E); 16H7 VH (M34V, I83T, D109E) (antibody) VH: QVTLKESGPVLVKPTETLTLTCTVSGFSLNNARVGVSWIRQPPGKALEWLAHIFSNDEKSYSTSLKSRLTISKDTSKSQVVLTMTNMDPVDTATYYCARSVVTGGYYYEGMDVWGQGTTVTVSS light: SYVLTQPPSVSVAPGQTARITCGGSNIGSESVHWYQQKPGQAPVLVVYYESDRPSGIPERFSGSNSGNTATLTISRVEAGDEADYYCQVWDGNSDHVVFGGGTKLTVLGQPKANPTVTLFPPSSEELQANKATLVCLISDFYPGAVTVAWKADGSPVKAGVETTKPSKQSNNKYAASSYLSLTPEQWKSHRSYSCQVTHEGSTVEKTVAPTECS	0.0016 s⁻¹
Ab0356: IgG4 PE; 16H7 VL (N25S, D49E, D50A, D91A, N93S); 16H7 VH (M34V, I83T, D109E) (antibody) VH: QVTLKESGPVLVKPTETLTLTCTVSGFSLNNARVGVSWIRQPPGKALEWLAHIFSNDEKSYSTSLKSRLTISKDTSKSQVVLTMTNMDPVDTATYYCARSVVTGGYYYEGMDVWGQGTTVTVSS light: SYVLTQPPSVSVAPGQTARITCGGSNIGSESVHWYQQKPGQAPVLVVYEASDRPSGIPERFSGSNSGNTATLTISRVEAGDEADYYCQVWAGSSDHVVFGGGTKLTVLGQPKANPTVTLFPPSSEELQANKATLVCLISDFYPGAVTVAWKADGSPVKAGVETTKPSKQSNNKYAASSYLSLTPEQWKSHRSYSCQVTHEGSTVEKTVAPTECS	invalid fit
Ab0354: IgG4 PE; 16H7 VL (N25S, D49E, D50E, D91H, N93S); 16H7 VH (M34V, I83T, D109E) (antibody) VH: QVTLKESGPVLVKPTETLTLTCTVSGFSLNNARVGVSWIRQPPGKALEWLAHIFSNDEKSYSTSLKSRLTISKDTSKSQVVLTMTNMDPVDTATYYCARSVVTGGYYYEGMDVWGQGTTVTVSS light: SYVLTQPPSVSVAPGQTARITCGGSNIGSESVHWYQQKPGQAPVLVVYEESDRPSGIPERFSGSNSGNTATLTISRVEAGDEADYYCQVWHGSSDHVVFGGGTKLTVLGQPKANPTVTLFPPSSEELQANKATLVCLISDFYPGAVTVAWKADGSPVKAGVETTKPSKQSNNKYAASSYLSLTPEQWKSHRSYSCQVTHEGSTVEKTVAPTECS	0.00158 s⁻¹

Other lines, results leading:

koff human KLB	Molecule
0.00192 s⁻¹	Ab0360: IgG4 PE; 16H7 VL (N25S, D49E, D50H, D91E, N93S); 16H7 VH (M34V, I83T, D109E) (antibody) VH: QVTLKESGPVLVKPTETLTLTCTVSGFSLNNARVGVSWIRQPPGKALEWLAHIFSNDEKSYSTSLKSRLTISKDTSKSQVVLTMTNMDPVDTATYYCARSVVTGGYYYEGMDVWGQGTTVTVSS light: SYVLTQPPSVSVAPGQTARITCGGSNIGSESVHWYQQKPGQAPVLVVYEHSDRPSGIPERFSGSNSGNTATLTISRVEAGDEADYYCQVWEGSSDHVVFGGGTKLTVLGQPKANPTVTLFPPSSEELQANKATLVCLISDFYPGAVTVAWKADGSPVKAGVETTKPSKQSNNKYAASSYLSLTPEQWKSHRSYSCQVTHEGSTVEKTVAPTECS
invalid fit	Ab0359: IgG4 PE; 16H7 VL (N25S, D49E, D50H, D91A, N93S); 16H7 VH (M34V, I83T, D109E) (antibody) VH: QVTLKESGPVLVKPTETLTLTCTVSGFSLNNARVGVSWIRQPPGKALEWLAHIFSNDEKSYSTSLKSRLTISKDTSKSQVVLTMTNMDPVDTATYYCARSVVTGGYYYEGMDVWGQGTTVTVSS light: SYVLTQPPSVSVAPGQTARITCGGSNIGSESVHWYQQKPGQAPVLVVYEHSDRPSGIPERFSGSNSGNTATLTISRVEAGDEADYYCQVWAGSSDHVVFGGGTKLTVLGQPKANPTVTLFPPSSEELQANKATLVCLISDFYPGAVTVAWKADGSPVKAGVETTKPSKQSNNKYAASSYLSLTPEQWKSHRSYSCQVTHEGSTVEKTVAPTECS
0.00163 s⁻¹	Ab0361: IgG4 PE; 16H7 VL (N25S, D49E, D50S, D91E, N93S); 16H7 VH (M34V, I83T, D109E) (antibody) VH: QVTLKESGPVLVKPTETLTLTCTVSGFSLNNARVGVSWIRQPPGKALEWLAHIFSNDEKSYSTSLKSRLTISKDTSKSQVVLTMTNMDPVDTATYYCARSVVTGGYYYEGMDVWGQGTTVTVSS light: SYVLTQPPSVSVAPGQTARITCGGSNIGSESVHWYQQKPGQAPVLVVYESSDRPSGIPERFSGSNSGNTATLTISRVEAGDEADYYCQVWEGSSDHVVFGGGTKLTVLGQPKANPTVTLFPPSSEELQANKATLVCLISDFYPGAVTVAWKADGSPVKAGVETTKPSKQSNNKYAASSYLSLTPEQWKSHRSYSCQVTHEGSTVEKTVAPTECS
0.0004541 s⁻¹	Ab0358: IgG4 PE; 16H7 VL (N25S, D49E, D50A, D91H, N93S); 16H7 VH (M34V, I83T, D109E) (antibody) VH: QVTLKESGPVLVKPTETLTLTCTVSGFSLNNARVGVSWIRQPPGKALEWLAHIFSNDEKSYSTSLKSRLTISKDTSKSQVVLTMTNMDPVDTATYYCARSVVTGGYYYEGMDVWGQGTTVTVSS light: SYVLTQPPSVSVAPGQTARITCGGSNIGSESVHWYQQKPGQAPVLVVYEASDRPSGIPERFSGSNSGNTATLTISRVEAGDEADYYCQVWHGSSDHVVFGGGTKLTVLGQPKANPTVTLFPPSSEELQANKATLVCLISDFYPGAVTVAWKADGSPVKAGVETTKPSKQSNNKYAASSYLSLTPEQWKSHRSYSCQVTHEGSTVEKTVAPTECS
